Laboratory results as given in the supplement of paper PMC9170038.

Test system: MS2 coat protein
Assay: apparent KD of MS2 coat protein; higher = weaker reporter binding
Settings: Eterna round: R107
Method in brief: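 Binding of SNAP-549-labelled MS2 coat protein was measured on designed RNA switches transcribed on-chip from Illumina sequencing clusters. The protein rose in twofold steps from 0.7 or 1.5 nM to 3 µM, with 0.8–1.5 h per step early on and 10–20 min per step later, in 100 mM Tris-HCl pH 7.5, 80 mM KCl, 4 mM MgCl2, without or with constant ligand. Each design's apparent KD is the median of fits to its normalised cluster binding curves.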

[1] = input ligand: theophylline 20 uM
[2] = input ligand: theophylline 2 mM
[3] = input ligand: tryptophan 2.4 mM

Sequence	apparent KD of MS2 coat protein (input ligand: arginine 13.2 mM) [nM]	apparent KD of MS2 coat protein [1] [nM]	apparent KD of MS2 coat protein [2] [nM]	apparent KD of MS2 coat protein [3] [nM]	apparent KD of MS2 coat protein (input ligand: none) [nM]
AAUACCGGAUCGGCCGCCACUGGUUGGCCCUGUGUACAUGAGGAUCACCCAUGUCCAUCCCAGACCAGGACCGGGAUCUUUGUGU [Ingeraza]	15.6	20	18.5		
ACGACGGCUGCGGCCGCCACUGUACAUGAGGAUCACCCAUGUGUAGUAAUUGGGACCCUGUGUUACAGGACCGGGUAGUUGAUUA [Orquteer]	23.3	49	47.1		
GCACCAGGUACGGAUACCAGAAUUUGCCAAUUGGGUGAACAUGAGGAUCACCCAUGUUAUUUCCCUUGGCAGCCGUACCUGGUGC [ETB NP+V+V2 #10]	8.88	13.2		9.45	
UCCAUCGGCGGAAGCCGAUGGUUUACAGAAGGAGCGUGGAUUAACACAGGUAGGUCGCUGGACAUGAGGAUCACCCAUGUGAUAG [SSAA #6]	40.1	117	60.4	55	60.4
ACGACAUGAGGAUCACCCAUGUAAGGUGAUACCAGACGAAGUAAUGUCCCUUGGCAGCACACGCAUAGUUGCGAUUAUUGUACGA [JR_SSTheophyA_Sub007]	83.7	522		572	
GUAAUUAUAAGAAGGAGCGUCGAAAAUGGGUAAACAUGAGGAUCACCCAUGUAAAGGGAACGACAGGUAGGUCGCUUAUGGUUAC [AstromonsSSArgB#24]	99.2	245	305	214	200
AUGGUAAGAACAUGAGGAUCACCCAUGUGACGAGGACCGGUACGGCCGCCACUCGUACCUUAGUCGUCGAACAGAGGAUUCAUGU [Trypt A-MS2@10]	37.1	138	125		
AAACGUUGCUGCGAUACCAGACAUGAGGAUCACCCAUGUACCAAGGUAAGAAAAUAACAUGUCCCUUGGCAGCGCAGCAACGAAA [MAT - Exclusion Theophlline B - Mod of Eli - D3]	17.5	43.6		15.6	
ACAUGAGGAUCACCCAUGUGUGUAAAUCCUCGAGGACCGGUACGGCCGCCACUCGAUUGAGUGUAAGUUGAAUGUAACAUUCAAC [whbob_SS_trypto A_2s9]	46	134	144		
AUGCAUAUCAGAAGGAGCGUCUUUAACAUGAGGAUCACCCAUGUAACAUUGAAUUCGAUGAGACAGGUAGGUCGCUGAAUAGUAA [SS-ArgB24]	27.5	39.3	32.8	31.2	33.7
AAACAACAUGAGGAUCACCCAUGUACCGAUACCAGCCAAAUAUAAGGCCCUUGGCAGCGGAGUAAAUCCGGAGGACAAUGGGUAA [Same State Theophylline A GF5]	8.62	39.2	76.9	28.3	39
GCCUCCAGCCGAAGGAGCGCUAGAAGGUGACAUGAGGAUCACCCAUGUGUGUGAUGUGGCUAGCAGGUAGGUCGCGGAGGAGGCA [Exclusion - Arginine B (Freestyle 22)]	53.7	105	74.1	74.8	109
AGACAUGAGGAUCACCCAUGUAGUAUGGAUACCAGAUGUAGAUUAGUCCCUUGGCAGCUGUGGUGAAGUGAUGCAUUGCUCCUAG [Exclusion - Theophylline A (Freestyle 1)]	19.5	36.4		23.2	
UGUAUGGACUGAAGGAGCGCCUCAAAAUAGCAUGAGGAACACCCAUGCAAGGCGAAAGCCGGGCAGGUAGGUCGCAGUCCAUACU [ArgBX 3]	21	32.2	27.2	22.6	20.3
GCUGUACCAUGAAGGAGCGCUCACGCAGUUGCGGGUACAUGAGGAUCACCCAUGUUGGGUGAGCAGGUAGGUCGCAUGGUACAGC [SSAB #17]	227	193	230	215	237
GGAUAGGACACGGCCGCCACUGCCUAGGAUACUAGCAACAUUUGGGUACAUGAGGAUCACCCAUGUAGGACCGGGUGUCCUAUCG	38.5	70.9	70.3		
CCUGCUACGGGAAACCGUAGCAGGAAUGAUACCAGUAGGAAAGACUACCCUUGGCAGCAUGGGAAACAUGAGGAUCACCCAUGUU [SSThA NP+V+V2 #7 Same Structure]	37.1	76.3		50.8	
UUUUAACAUGAGGAUCACCCAUGUAAUGAUACCAGAGACGAAAGUCUCCCUUGGCAGCAUAAUCAUUACAUGAGAUGGAAACAUC [Theophylline A 7]	29.2	48.5		17.5	
AUGUAAGUGGUGUCACUGUGGUCUAGUGAUACCAGUAUCGAAAGAUACCCUUGGCAGCGCUAGAACAUGAGGAUCACCCAUGUUU [#24 Exclusion-TheophyllineA]	34.8	74.8		58.3	

Sequence	apparent KD of MS2 coat protein (input ligand: arginine 13.2 mM) [nM]	apparent KD of MS2 coat protein [1] [nM]	apparent KD of MS2 coat protein [2] [nM]	apparent KD of MS2 coat protein [3] [nM]	apparent KD of MS2 coat protein (input ligand: none) [nM]
GAGCUCGUGGACUGGCGUGCUCCGCUCCGUCGAGGACCGGUACGGCCGCCACUCGACAUGAGGAUCACCCAUGUGCGAGCUCGCU [#1 Exclusion - Tryptophan A Attempt #22 (HarryS)]	11.4	113	117	21.4	46.2
AAACAUGAGGAUCACCCAUGUAUGUUAUUACGAGGACCGGUACGGCCGCCACUCGAUAGAGUAGAAGUAAAUUGUAAUUCAUGUU [JR_ExcTryptoA_Sub017]	19.3	18.8	16.9		
UAUAUAGAAGGAAGUCAUAUAGUUGCAGAAGGAGCGUAGGAAACUACAGGUAGGUCGCUGAGGUACAUGAGGAUCACCCAUGUAG [SSArg A #16 Slice of Pi]	31.1	41	29.7	27.2	23.6
CGGUACAUGAGGAUCACCCAUGUGUCGGAUACCAGAGAGCCGGCUCUCCCUUGGCAGCUGGUGCGACAUGAGGAUCACCCAUGUG [Exclusion Theophylline A GF19]	29.4	58.5	67.4	53.3	61.6
UGACAUUGCUCAGAUACCAGACAUGAGGAUCACCCAUGUACCGAGGUACCCGAAAGGAAUGUCCCUUGGCAGCUGAGCAAUGUCU [TheoBX 4 #MS2Left #Theo2 #StaticStem]	12.9	15.5		11	
AAUAGACAUGAGGAUCACCCAUGUAUGGAAGGAGCGGUGAAUAAGCCAGGUAGGUCGCCAGUGUGAGGGUUAUCUAUGUAAUAAA [#19 Exclusion - Arginine A]	27.4	41.6	35.7	40.8	38.4
AAAAUCCUACCUGAGGAUCACCCUGGUGAAGGAGCGCCCGAAAGGGCAGGUAGGUCGCACCUGAGGAUCACCCUGGUACCUAAAA [ArgAX 29 #DoubleMs2 #OpenEnded #AlternativeMS2]	82.6	57.4	48.3	61.8	70.6
AAGACGGUCGGAAGGAGCGGUACAUGAGGAUCACCCAUGUACUCCUGGGCAUCCGUAGUGUGCCAGGUAGGUCGCCGAUUGCGGG [XArg-B14]	12.8	22.9	16.6	15.3	12.8
ACAUGAGGAUCACCCAUGUGAAGGCACGAUACCAGCUGAUCCCGUGGCCCUUGGCAGCGUCCGGUUUGGUCCGGCGGAUGAGACG [azamullin]	19.6	36.4		23.5	
CGUAGUAUCAGACAUGAGGAUCACCCAUGUCGAGGACCGGUACGGCCGCCACUCGGCAGUUUGCGUCCUCAGGUACUCCAGGUAA [Larirexea]	14.8	27.9	26.1		
UCAUAUUAGUGAGAUGUAAGGUAUCAUGAUACCAGUAGAUAAUUAUACCCUUGGCAGCAUAACAUGAGGAUCACCCAUGUACAUG [Ab]	23.1	21.3		19.8	
UAGAAACGUACGGCCGCCACUCGGAAUUGGCUCAGACCAUACGUACAUGAGGAUCACCCAUGUUAGAGGACCGGGUAUAAUCUAA [theeternabot_sameState_MS2_Trp_B_46]	18.5	30.8	31		
ACCUGUACGAAAAGUGCAGGACAUGAAUAACGAGGACCGGUACGGCCGCCACUCGGGUAAUAACCUGAGGAUCACCCGGGUCAUG [TrypAS 6 #AlternativeMS2 #Zipper #StaticStem]	111	211	249	27.5	218
GCUCGUUGCAUGGAUACCAGUUGAUAGGCCGCCUCCGGAUACAUGAGGAUCACCCAUGUCAACCCUUGGCAGCCACCCAAUAGGG [theeternabot_exclusion_MS2_Theo_B_27]	10.4	13.7		10.6	
GGUUUGCGGCCUGAUACCAGUGAUGGAUGAACCCUAGUCAACAUGAGGAUCACCCAUGUUCACCCUUGGCAGCAGUGACGCUCGA [theeternabot_exclusion_MS2_Theo_B_34]	43.2	78.7	354	74.1	69.7
AAUGUAUGGCACAUGAGGAUCACCCAUGUGCGAGGACCGGUACGGCCGCCACUCGGUCAAGGGAUCUUACCUCUAUACAUUAAUG [XTryp A #22]	10.6	14.7	11.9		
CAAAGUUCGUCUCUGGUCCUCUAAUCGGCUCGAGGACCGGUACGGCCGCCACUCGCCCGACAUGAGGAUCACCCAUGUCUGUAAA [Dilaanis]	15.5	23	16.8		
AGGUACGGAAUCCUCAUGUAGUCGUACCAACGAGGACCGGUACGGCCGCCACUCGAAUAAACAUGAGGAUCACCCAUGUAAUAAU [T''-M-T'-T-MS2]	17.6	97.3	90.1		
